Source: patent publication US20230242902A1, “A HIGHLY ERROR-PRONE […] R[…] FOR TARGETED CONTINUOUS EVOLUTION IN VIVO” (The Regents of the University of California, priority 2017, published 2023)
Numbering of substitutions follows the chain as printed. Names and notes keep the numbering of the source.

B1: G410F: TP-DNAP1 variant (protein)
chain: MDYKDKALNDLRNVYADFDSLPLDFRQILIKDRATLLQKEDVEKKILERQEDAKKYAEYLKQSEIPERISLPNIKRHKGVSISFEETSEDMVLEPRPFIFDGLNIRCFRRETIFSLKNKILNMVKESSSFKNVSRQSVSFMYFKIFNKGKVIASTKSVNIYEDKIDERLEDLCNNFDDVLKKIIDVTYGYESLFVSETYSYVIFYAKSIYFPQPRCVNNWGNNIPNILTFDSFKLFTANKNNVSCIKQCSRFLWQKDFNTLEEMIEYKNGNICIVTPQLHINDVRDIKSFNDIRLYSESPIKTFSVIDNTITYLFYFKEHLGVIFNITKSRHDRRVTKFSPLSKFSDVKNITVCFDIESYFDPEKESNQVNIPFICCASIIYNKVIGNIVDFEGRDCVAQMIEYVVDICFELNISSVELIAHNGGGYDFHYILSSMYNPAAIKNILIRNNSFISFNFAHDGVKFSVKDSYSFLLCSLANASKAFLNEETFKKTDFPHHDLKTADDLYKVYKEWSSVNTEINHVVEKEKLLITSEHIVNFTKNDKSKTLIEWSKDYCRNDVLVLSKVWLEFKNAVEDIFNCELVDQTMTLAGLSYKLFQANMPFDVELRHPNKEDYFNMREALIGGRCISVNGIYKDVLCLDVKSLYPASMAFYDQPYGSFKRVSSRPKDELGIYYVRVTPNRNNKSNFFPIRSHNKITYNNFEESTYIAWYTNVDIDIGLSEGHNIEYIPFDSYGNIGYSWSKKGKIFEKYIKDVLYKLKIKYEKQNNKVKRNVIKIIMNSLWGKFAQKWVNFEYFIKSEDDIDFESEEAYKIWDTDFMLIKKIKESTYSSKPIQNGVFTLSWARYHMKSIWDAGAKEGAECIYSDTDSIFVHKEHFKKNAKFMLNGLKVPIIGSEVGQLELECEFDKLLCAGKKQYMGFYTYFQDGKPCIKEKKRFKGIPSNYIIPELYAHLLSGADKEAKIQFLKFRREWGSVKGYIENKTVKAT
B2: E411R: TP-DNAP1 variant (protein)
chain: B1 chain with F410G, E411R
B3: E411G: TP-DNAP1 variant (protein)
chain: B1 chain with F410G, E411G
B4: D460G: TP-DNAP1 variant (protein)
chain: B1 chain with F410G, D460G
B5: G410W: TP-DNAP1 variant (protein)
chain: B1 chain with F410W
B6: G461K: TP-DNAP1 variant (protein)
chain: B1 chain with F410G, G461K
B7: G410S: TP-DNAP1 variant (protein)
chain: B1 chain with F410S
B8: E411D: TP-DNAP1 variant (protein)
chain: B1 chain with F410G, E411D
B9: N413H: TP-DNAP1 variant (protein)
chain: B1 chain with F410G, N413H
B10: G426T: TP-DNAP1 variant (protein)
chain: B1 chain with F410G, G426T
B11: N291M: TP-DNAP1 variant (protein)
chain: B1 chain with N291M, F410G
B12: E411N: TP-DNAP1 variant (protein)
chain: B1 chain with F410G, E411N
B13: G410Y: TP-DNAP1 variant (protein)
chain: B1 chain with F410Y
B14: N611Q: TP-DNAP1 variant (protein)
chain: B1 chain with F410G, N611Q
B15: E411S: TP-DNAP1 variant (protein)
chain: B1 chain with F410G, E411S
B16: E411L: TP-DNAP1 variant (protein)
chain: B1 chain with F410G, E411L
B17: E613D: TP-DNAP1 variant (protein)
chain: B1 chain with F410G, E613D
B18: I414F: TP-DNAP1 variant (protein)
chain: B1 chain with F410G, I414F
B19: N291K: TP-DNAP1 variant (protein)
chain: B1 chain with N291K, F410G
B20: G410T: TP-DNAP1 variant (protein)
chain: B1 chain with F410T
B21: N413T: TP-DNAP1 variant (protein)
chain: B1 chain with F410G, N413T
B22: K612A: TP-DNAP1 variant (protein)
chain: B1 chain with F410G, K612A
B23: S415V: TP-DNAP1 variant (protein)
chain: B1 chain with F410G, S415V
B24: K612S: TP-DNAP1 variant (protein)
chain: B1 chain with F410G, K612S
B25: K612Q: TP-DNAP1 variant (protein)
chain: B1 chain with F410G, K612Q
B26: N611P, V897V: TP-DNAP1 variant (protein)
chain: B1 chain with F410G, N611P
B27: K612V: TP-DNAP1 variant (protein)
chain: B1 chain with F410G, K612V
B28: N413E: TP-DNAP1 variant (protein)
chain: B1 chain with F410G, N413E
B29: E411A: TP-DNAP1 variant (protein)
chain: B1 chain with F410G, E411A
B30: E411K: TP-DNAP1 variant (protein)
chain: B1 chain with F410G, E411K
B31: L412V: TP-DNAP1 variant (protein)
chain: B1 chain with F410G, L412V

Test system: p1
Assay: p1 copy number by p1-encoded mKate2 fluorescence
Format: cell-based, S. cerevisiae
Conditions: OR-Y24, measured in triplicate
Protocol: A calibration curve was established to correlate p1 copy number, determined via quantitative PCR (qPCR), with fluorescence of p1-encoded mKate2 (Table 1). Five TP-DNAP1 variants representing a wide range of copy numbers were transformed into ORY24 and passaged until w.t. p1 was displaced. The five OR-Y24 strains were grown to saturation, diluted 1:10,000 to mimic p1 fluctuation tests, and grown in triplicate 100 μL cultures and duplicate 40 mL cultures. 100 μL saturated cultures were subject to fluorescence measurement of mKate2 (ex/em=561 nm/620 nm, bandwidth=15 nm) on a flow cytometer (Invitrogen Attune NxT). Whole-cell DNA extracts were prepared from 40 mL cultures and used as templates for qPCR measurement of p1-encoded leu2 (Q180*), as described previously (Ravikumar et al., 2014). p1-encoded LEU2 was PCR amplified with qPCR-Leu2F and qPCR Leu2R; and genomic LEU3 was PCR amplified with qPCR-Leu3F and qPCR-Leu3R using SyBR Green (Fisher Scientific) master mix.
To assay p1 copy number for large-scale p1 fluctuation tests, additional replicates of OR-Y24 strains were grown from the 1:10,000 dilution in triplicate and saturated cultures were subject to fluorescence measurement via flow cytometry. Fluorescence measurements were converted to copy number with the linear calibration curve.
To assay relative p1 copy number for small-scale p1 fluctuation tests, an additional 200 μL culture of OR-Y24 strains were grown from the 1:10,000 dilution. 200 μL saturated cultures were subject to an OD600 measurement and fluorescence measurement of mKate2 (ex/em=588 nm/633 nm), using a microplate reader (TECAN Infinite M200 PRO). A linear relationship was assumed between p1 copy number and OD600-normalized mKate2 fluorescence. Copy numbers were calculated from normalization to a w.t. TP-DNAP1 control.
For a few large-scale p1 fluctuation tests, p1 copy number was assayed by the method of small scale p1 fluctuation tests (i.e. microplate reader measurement). For these experiments, mutant TP-DNAP1 p1 copy numbers were calculated by normalization to a w.t. TP-DNAP1 control. The copy number of this control was assumed to be the average w.t. TP-DNAP1 copy number from all large-scale p1 fluctuation tests that used flow cytometry measurements.
TP-DNAP1 plasmids were isolated from these strains and subject to Sanger sequencing. 210 unique variants were identified and the corresponding plasmids were re-transformed into OR-Y24. Transformed strains were passaged in SC-UH until w.t. p1 was displaced, and subject to p1 copy number measurement in triplicate. Four high copy variants were directly subject to qPCR measurements for validation. To test the suppressor activity of the G410H mutation, which yields increased p1 copy number, this amino acid change was added to several low-activity TP-DNAP1 variants. p1 copy number was similarly assayed for these strains.

Molecule	Mean fold-increase over w.t. (p1 copy number) [fold]
B1	2.66
B2	2.07
B3	1.54
B4	1.63
B5	2.5
B6	2.15
B7	2.27
B8	2.32
B9	2.2
B10	1.22
B11	2.28
B12	1.9
B13	2.73
B14	1.92
B15	1.52
B16	2.22

Molecule	Mean fold-increase over w.t. (p1 copy number) [fold]
B17	1.82
B18	1.29
B19	1.66
B20	2.57
B21	1.76
B22	1.94
B23	1.44
B24	1.75
B25	2.04
B26	2.04
B27	1.85
B28	2.62
B29	2.08
B30	2.39
B31	2.21
